Results reported in article PMC9896449.

Key:
[1] = biological target: BiShAb0201 (ShAb02 VNAR - (GGGGS)5 - ShAb01 VNAR - human IgG1 Fc) (nurse shark (Ginglymostoma cirratum)); test: BLI
[2] = biological target: ShAb01H02K (knob-in-hole heterodimer of ShAb01-Fc and ShAb02-Fc) (nurse shark (Ginglymostoma cirratum)); test: BLI

## SARS-CoV-2 WA-1 spike receptor binding domain (RBD) (from UniProt P0DTC2 331-527) (domain or fragment)
[1]
  Kd: 1.07 nM
  koff: 2.82e-05 s⁻¹
  kon: 26300 M⁻¹ s⁻¹
[2]
  Kd: 0.57 nM
  koff: 6.98e-05 s⁻¹
  kon: 122000 M⁻¹ s⁻¹
